Experimental data as given in the DeepSol protein solubility set.

Test: soluble on expression in E. coli; label from the status in PepcDB or PDB records

Sequence | soluble on expression in E. coli
MSLTRRSDTSLRAALIIQNWYRGYKARLKARQHYALTIFQSIEYADEQGQMQLSTFFSFMLENYTHIHKEELELRNQSLESEQDMRDRWDYVDSIDVPDSYNGPRLQFPLTCTDIDLLLEAFKEQQILHAHYVLEVLFETKKVLKQMPNFTHIQTSPSKEVTICGDLHGKLDDLFLIFYKNGLPSERNPYVFNGDFVDRGKNSIEILMILCVSFLVYPNDLHLNRGNHEDFMMNLRYGFTKEILHKYKLHGKRILQILEEFYAWLPIGTIVDNEILVIHGGISETTDLNLLHRVERNKMKSVLIPPTETNRDHDTDSKHNKVGVTFNAHGRIKTNGSPTEHLTEHEWEQIIDILWSDPRGKNGCFPNTCRGGGCYFGPDVTSKILNKYQLKMLIRSHECKPEGYEICHDGKVVTIFSASNYYEEGSNRGAYIKLCSGTTPRFFQYQVTKATCFQPLREGHHHHHH | not soluble
MGSDKIHHHHHHAITVEENPNMMYMLVGSYATPEEEGIKVYNFDEQNGNSQYISGIKGISNPSFLIPSADGERIYAVGEDSGKSSTANAIKFDKEQKKLTLLNSQPTDGGAPCYITLSPSEKFVLTANYIGGSITVFPLDKDGKLKSETRLISFTGNSLDKERQTQPHLHCIEFTPDHKYLLASDLGTDQIHVFPVSENVTDGVSHSLLNESEEFNIKVESGSGPRHICFHPNQKFAYLINEISGKVIAFSYDKGKLNAIQYIEADTVGAKGSGDIHISPDGKFLYASNRLKADGIAIFSINQEEGTLTKTGYQLTGIHPRNFIISRNGRYLLVACRDSNSIQVFERDSQTGLLKDTGKTIKTNKPVCLKFTF | not soluble
MGSDKIHHHHHHMTLNNLEIDTLVVGAGQAGVAMSEHLSKLGVPHLVLERNRIAQAWRTGRWDSLVANGPAWHDRFPGLEFNLDADAFAGKDQVADYFEQYVRKYNLPVRTGIEVKRVVRNSDRPGFTIDTSEGVIRANRVVAATGPFQKPVIPAIAPKDSNLHQIHSAAYFNPEQLPEGAVLVVGAGSSGVQIAEELMRAGRQVYLSVGAHDRPPRAYRNRDFCWWLGVLGEWDAEIAKPGREHVTIAVSGARGGHTVDFRALAHQGMTLVGLTQSFENGVARFQDNLVENINRGDDNYLALLDAADAYIERNGLDLPEEPEARQRLADPECMRNPLQQLDLAKAGVSSIIWATGYGVDFSWLQVDTFDANGKPQHQRGVAREPGVYFLGLPWLSRRGSSFIWGVWHDAKHVAGHIATQRTYTAYRDREQRAADEQQTAKISNVSTLGAH | not soluble
MTTTTTVRQCRVTRIGSTELPPRVENAIQFLDDQCYEKLGGTVVMKWFGNRVPPEDHRQLSSFCHVVNLTKYDDDPKSRYHKDDIECACGTSSNLFFLKKFNEAVEKYPCDDDETITKAPTTEPSDDLWCWQLRSRSFASSPPPPRMKNAIQLLDDKCYAKLGGTTVMKWFGNVVTPEGKVCFVINLTDSKMKLYKKEIVCACGRQSYVFFLEGLILMREKYSCNDKTTTKSTRTTPSTTTAKQCYVRRTGSSVSPPRETDAIPMLDDQCYEKMGGTSVMDRFGNREPPKSVYEYSEFCLLVDVTLNGPAMETYQSDIECVCGISSLEFFLEKFEEAIKKYPCDNDGATEAATTKPTTTTVTTTTVPPKTDPPRTEPPKTEPPTTEPPKIEPPRTEPPKTEPPPTEPPKTEPPKTTPPKTEPPTTEPPNIPYCWQQQSRLFAPSPPPPRVNNTMPLIEDKCYAKLGDTLVMAWFGNRAPPKNFTEVLDFCTVAALTYNNESAVFSVFKKDIQCNCDKLSFSRFLKKLSEAMEKYQCNNVWTRTEAPETVTTRTEPPRTEPPRTIPPRTEAPRTEPPRTEPPKTEAPRTVRPKTEAPMTVPPRTEPPMTEAPRTEVPMTEPPKTEPPRTAPPRTEVSMTLPPETVPPNTEAPRTEVPMTVPPRTEPPKTEAPRTVPPKTEAPMTEVPMTGPSRTEVPMTEPPKTEQPRTAPPRTEVSMTLPPETVPPKTEAPRTEVPMTGPSRTEVPMTVTPETGLSSTVTSKTEPPKTTTEKRITPRTEVPKTVPPRTGPPMTVPPGTEAPTTEAPMTITPRTEQLRTEQLRTDQSKTVTPKTKITVWPTDYRGPI | not soluble
MRGLAVLVLLVFAVQVAAAEDFRPVVFVHGLAGSAGQFESQGMRFAANGYPAEYVKTFEYDTISWALVVETDMLFSGLGSEFGLNISQIIDPETLDKILSKSRERLIDETFSRLDRVIDEALAESGADKVDLVGHSMGTFFLVRYVNSSPERAAKVAHLILLDGVWGVDAPEGIPTLAVFGNPKALPALGLPEEKVVYNATNVYFNNMTHVQLCTSPETFAVMFEFINGYKPATTDIVPQDGDYVKVKGKFLAFATNGDVSGWLSIYPIDENGKRLTRLPVKFMRVKGDFEVRLRKGQLYEFQFRKDFSPIIYHYYRAPFVRDDLWARFLVSKPPLDVELLILPERLSPAAKETSGLLLIRYKEMIGEYDEEIGGVDEVYVNGVNVCTERICPIERAVNGLWVFDRGADGKSDLDREVVRYSIMPFMSAADLVVPAEGTISIAVKSRTGGEESFTIPAWSADRHSIIVQFSDYIVDKLAAALEH | soluble
MGSDKIHHHHHHMGLLTKGSPLTWAETVPHIDYIKKHGIAQFINLYHRLKSRHGDQLKWGDEIEYTIVKFDDANKKVRVSCKAEELLNKLQAEEQVNAMLGTANRFLWRPEFGSYMIEGTPGMPYGGLIACFNIVEANMKLRRQDETCLSISFPSLGVPGFTFPEVAADRKNDDAANSVFWPEQAVFLGHPRFKNLTKNIKGRRGSKVAINVPIFKDTNTPSPFVEDLSALGGPDDTRDAKPDHIYMDHMGFGMGCCCLQVTFQAVNVDEARWLYDQLTPITPILLALSAATPIFRGKLSNVDSRWDIISASVDDRTPEERGLEPLKNSKWVIDKSRYDSTDCYIYPCSVGYNDIPLQYDETIYKQLIDGNIDEPLAKHIAHMFIRDPHQVFRERIEQDDEKSSEHFETIQSSNWMNMRFKPPPPDAPEIGWRVEFRPTEVQLTDFENAAYCCFVVLLTRMMISFRLTYLMPISMVTENMKRAQQKDAVLNQKFLFRKGLAECKSAPENLKGSEKCGPPSQDIEEMSIDEIINGKKNGFPGLISLIRQFLDSADVDVDTRCTISQYLNFISKRATGEINTLAHWTRGFVQSHPAYKHDSDVNDNIVYDLLKKMDAISNGEDHCEKLLGCYRSKTDHAISAAVRKAEEHMIVSSQKRAH | not soluble
EEIDCNDKDLFKAVDAALKKYNSQNQSNNQFVLYRITEATKTVGSDTFYSFKYEIKEGDCPVQSGKTWQDCEYKDAAKAATGECTATVGKRSSTKFSVATQTCQITPAEGPVVTAQYDCLGCVHPISTQSPDLEPILRHGIQYFNNNTQHSSLFMLNEVKRAQRQVVAGLNFRMTYSIVQTNCSKENFLFLTPDCKSLWNGDTGECTDNAYIDIQLRIASFSQNCDIYPGKDFVQPPTKICVGCPRDIPTNSPELEETLTHTITKLNAENNATFYFKIDNVKKARVQVVAGKKYFIDFVARETTCSKESNEELTESCETKKLGQSLDCNAEVYVVPWEKKIYPTVNCQPLGMISLMKRPPGFSPFRSSRIGEIKEETTSHLRSCEYKGRPPKAGAEPASEREVS | not soluble
MGNGGILCALKTDSCSMLVISNNVHLPDAEIELTAIRAQGAGGQNVNKVSSAVHLRFDIPASSLPPFYKERLLALRDSRITSDGVIILKAQQYRTQEQNRADALERLTELILSAIKVEKKRRPTKPTLGSKKRRLETKAKRGSIKAGRGKVDFLEHHHHHH | soluble
MSLGTLKLFNIGNMVTYSMNESSMISSKGMEILISDGKIIEIGPKVGDADQLFDCENKLVTPGFVDCHTHPVFLDGRENEFEMRLKGFSYEEIANEGGGIKNSVKSVRNSSEVELYNRVISRMDKFLKLGTTTIEAKSGYGLDINSELKSLKVIHEVNLAHQIDILPTFMGAHAVPNEYADDIDSYVDLICDSMIPQVAEQGIAIFNDVFCEKGYFNLKQSERILKKGLDYGLLPRIHSDEFNNLGASKLAGKLNLISADHLMKIEKDDIEIMADSNTKAVLLPGTTFFLGHSNYAPYHKLKEAGIEVAIASDYNPEGHHHHHH | soluble
EVKLVESGGGLVLPGGSLRLSCATSGFTFTDYYMTWVRQPPGKALEWLGFIGNKANDYTTEYSASVKGRFTISRDDSQSILYLQMSTLRAEDRATYYCATVYGNYPYFDVWGAGTTVAVSSAKTTPPSVYPLAPVCGGTTGSSVTLGCLVKGYFPEPVTLTWNSGSLSSGVHTFPAVLQSGLYTLSSSVTVTSSTWPSQSITCNVAHPASSTKVDKKIEPR | soluble
MGHHHHHHSHMNRLPDDYDPYAVEEPSDEEPALSSSEDEVDVLLHGTPDQKRKLIRECLTGESESSSEDEFEKEMEAELNSTMKTMEDKLSSLGTGSSSGNGKVATAPTRYYDDIYFDSDSEDEDRAVQVTKKKKKKQHKIPTNDELLYDPEKDNRDQAWVDAQRRGYHGLGPQRSREQQPVPNSDAVLNCPACMTTLCLDCQRHESYKTQYRAMFVMNCSINKEEVLRYKASENRKKRRVHKKMRSNQEDAAEKAETDVEEIYHPVMCTECSTEVAVYDKDEVFHFFNVLASHS | not soluble
MERAHRIDLKLLRYFLAVAEELHFGRAAARLNMSQPPLSIHIKELEQQLGTLLFIRHSRSVALTHAGKVLMEESRRLLASANQALARVEQIGRGEAGRIELGVVGTALWGRMRPAMRHFLKANPNVEVLFREKSPGMQMALLERRELDAGIWRMAIEPAVGFTSIRLHESAFMVAVPEDHDLASRDSVPLAALRNEYFVTLPSVHSDWGFLQRVCQQAGFSPMIIREVVEPQTVLAMISMGIGITLMADGYAQMSWPGVVFRPLEERIPADLYIVYDQQQATPALEKLVAALTV | not soluble
MSLNINYPAEYEIGDKVFTCIGAALFGQISAASNCWSNHVGIIIGHNGEDFLVAESRVPLSTITTLSRFIKRSSNQRYAIKRLDAGLTEQQKQRIVEQVPSRLRKLYHTGFKYESSRQFCSKFVFDIYKEALCIPVGEIETFGELLNSNPNAKLTFWKFWFLGSIPWERKTVTPASLWHHPGLVLIHAEGVETPQPELTEAVEGHHHHHH | not soluble
MKTLSTMATLLALSLPVMAQECASDIMRTAPNLRYVYSTQGTVKDLHTGLTWMRCTFGKEWNAEQGRCTGQAQPLRWQAALQEVQAINHPGSRHRLHQFAGVKQWRMPNIKELSSLTEQACFAPAANETAFASGLVTEVGNYAAYLWSNTTRIEREEAWTWDAINGEIYAYSIHAHEMGLLLVADELEHHHHHH | soluble
MTDTASKYAVKLKTNFEDPKWVNRHKFMFNFLDINGNGKITLDEIVSKASDDICAKLGATPAQTQRHQEAVEAFFKKIGLDYGKEVEFPAFVNGWKELAKHDLKLWSQNKKSLIRNWGEAVFDIFDKDGSGSISLDEWKTYGGISGICPSDEDAEKTFKHCDLDNSGKLDVDEMTRQHLGFWYTLDPNADGLYGNFVP | soluble
MNREGAPGKSPEEMYIQQKVRVLLMLRKMGSNLTASEEEFLRTYAGVVNSQLSQLPPHSIDQGAEDVVMAFSRSETEDRRQ | soluble
MALLTKVTWNNIGMHQPQTNWYKGVWFPYSTPKYSFLLWLTIQNRLSTGDHIKAWNSGQQVTCTLCGNAEETRNLLFFSCHYTSEVWRTLTQRLLSNDYSRDWNRLLPLLCNTNMPTDLLFLFRYVFQASVYHIWRERNARRHGEISSPPNRLIKFIDKNVRNRINSIRDTGDHNYNACLQLWFSTRPLSSTHSL | soluble
MEDFFSIGQIINTHGVRGELKIYPLTDDINRFDDLDSVYVDNEIKKVISVKKQPNKLILKLEGIDTLDEAVKYKNKYIKVLREDAVELKEGQYFIKDIIGCNVFDENDKDLGEVYDVISTKNNDVYCIRKEGQQDILVPALKDIVLKIEIENKKIVIKAVEEWLESLEHHHHHH | soluble
